Reference: US12258605B2, “Alkane oxidation by modified hydroxylases” (The California Institute of Technology, priority 2005, dated 2025)

Legend:
Assay type in all cases: biochemical
[1] = Reactions on alkanes, total turnovers (Table 18): decane; details: decane (10 C atoms)
Experimental: (§1) Reactions on alkanes. Reactions with alkanes from pentane to decane were carried out at 3 mL-scale using 100 mM KPi pH 8.0 buffer containing 2% ethanol (to allow alkane solubilization) and purified protein. 2.5 mL KPi buffer were added with 60 μL of 90 mM alkane solution in ethanol (final conc.=1.8 mM), 150 μL enzyme solution at 1 μM (final conc.=50 nM), and 300 μL NADPH regeneration solution (100 units/mL isocitrate dehydrogenase, 70 mg/mL isocitrate, 1.5 mg/ml NADP^+). Vials were sealed and stirred for 24 hours at 4° C. 1 mL-aliquot of the reaction was removed, added with 10 μl internal standard (25 mM 1-bromohexane in ethanol), and extracted with 200 μl chloroform (30 sec vortexing, 1 min centrifugation at 10000 g). The organic phase was removed and analyzed by gas chromatography. Reactions with ethane, propane, and butane were carried out as described for longer alkanes with the only difference that alkane-saturated KPi buffer was used. Propane reactions with variants from HL5 and L9 libraries were performed on 1 mL-scale reaction using 20 nM enzyme to reduce oxygen limitation. Propane and butane reactions were analyzed by direct injection of reaction solution on the GC using 1-pentanol as internal standard. Ethane reaction products were functionalized (see below) and analyzed by GC using 1-butanol as internal standard. All measurements were performed in triplicate.
(§2) Products from alkane reactions were identified and quantified by gas chromatography using authentic standards and calibration curves with internal standards. For the reactions with alkanes from pentane to decane, GC analyses were carried out using a Shimadzu GC-17A gas chromatograph, Agilent HP5 column (30 m×0.32 mm×0.1 μm film), 1 μL injection, FID detector, and the following separation program: 250° C. inlet, 250° C. detector, 50° C. oven for 3 min, 5° C./min gradient to 100° C., 25° C./min gradient to 230° C., and 230° C. for 3 min. For butane and propane (TTN) reactions, GC analyses were carried out using a Hewlett-Packard 5890 Series II Plus gas chromatograph, Supelco SPB-1 column (60 m×0.52 mm×0.5 μm film), 0.5 μL injection, FID detector, and the following separation program: 250° C. inlet, 275° C. detector, 80° C. oven for 2 min, 10° C./min gradient to 110° C., 25° C./min gradient to 275° C., and 275° C. for 2.5 min. For ethane and propane (rate) reactions, analysis of reaction mixtures was carried out by derivatization to alkyl nitrites followed by GC-ECD analysis. For laurate, reaction product analysis was carried out by derivatization with N-methyl-N-trimethylsilylheptafluorobutyramide followed by extraction with hexane. Organic solutions were analyzed by FID-GC.
(§3) TTNs for each variant-substrate pair were determined using standardized reaction conditions (identical enzyme and substrate concentration, incubation time, cofactor regeneration system) (Table 18). TTN values were used to assess performance because TTN is a cumulative measure of both catalytic and coupling efficiency and because mutants were selected based on improvement in this property. To facilitate comparison among the variants, TTNs were normalized to the highest value in the series (MTN=Maximal Turnover Number) and plotted for the increasing-sized substrates (FIG. 38). A gradual shift of the enzyme's substrate preference during laboratory evolution is evident from these profiles. The marginal activity of wild-type BM3 on these substrates (MTN=150) is restricted to the long-chain alkanes, where it is a promiscuous function of BM3's high C12-C20 fatty acid hydroxylase activity. In the first evolutionary intermediates, substrate preference centers on medium-chain alkanes […], reflecting their selection for activity on octane. In 35E11, selected for activity on propane, preference still centers on C6-C8 alkanes but now extends towards the shorter ones, including propane. Propane activity becomes prevalent with the transition from variant ETS8 to 19A12. […]

[2] = Reactions on alkanes, total turnovers (Table 18): pentane; details: pentane (5 C atoms)
Experimental: as §1, §2, §3

[3] = Reactions on alkanes, total turnovers (Table 18): propane
Experimental: as §1, §2
Because 35E11 was only marginally stable, the engineering strategy described herein (see below) involved an initial stabilization step followed by iterative rounds of mutagenesis and screening. Random, saturation and site-directed mutagenesis methods were used to create libraries of mutants (FIG. 35), which were screened for activity on a propane surrogate, dimethyl ether. Positives were confirmed in a re-screen and purified for further analysis. Reactions with purified enzymes were carried out in sealed vials in the presence of propane-saturated buffer and a cofactor regeneration system. Improvement in propane total turnover number-moles of propanol produced per mole of enzyme—was a selection criterion for taking a mutant to the next round.
TTNs for each variant-substrate pair were determined using standardized reaction conditions (identical enzyme and substrate concentration, incubation time, cofactor regeneration system) (Table 18). TTN values were used to assess performance because TTN is a cumulative measure of both catalytic and coupling efficiency and because mutants were selected based on improvement in this property. […]

[4] = Kinetic constants for n-alkanes: octane
Experimental: Rate measurements. Initial rates of product formation were determined at 25° C. in 100 mM KPi pH 8.0 buffer using purified protein (100 nM) and a substrate concentration of 1.6 mM. In a 5 mL-vial, 20 μL of alkane solution (in ethanol) were dissolved in 400 μL KPi buffer, to which 500 μL enzyme solution at 100-200 nM was added. Reaction was initiated by adding 100 μL of 5 mM NADPH solution, followed by stirring at 300 rpm for 1 minute, and quenched by adding 200 μL chloroform and stirring at 800 rpm for 10 sec. Solutions were transferred to an Eppendorf tube, to which internal standard (10 μL 25 mM 1-bromohexane in ethanol) was added. Tubes were vortexed for 10 sec and centrifuged for 30 sec at 10,000 g. Organic phase was removed and analyzed by GC. For propane, reactions were carried out in a 5 mL-scale using 100-400 nM purified enzyme, propane-saturated buffer (propane concentration≈1.6 mM) and a final NADPH concentration of 500 μM. Reactions were stopped by addition of 200 μL H2SO4 conc. and analyzed by derivatization to alkyl nitrites followed by GC-ECD analysis as described below.
as §2
To further investigate the evolution of substrate specificity, kinetic constants for the C5 to C8 alkanes were determined from Michaelis-Menten plots (Table 19). The preference of 35E11 and its evolutionary predecessors for medium-chain alkanes is indicated by their high C8/C5 specificities ((kcat/Km)8/(kcat/Km)5˜100), where Km appears to be the major contributing factor. C8/C5 specificity decreases to ˜5 in the immediate precursors of P450PMO and then switches altogether to the smaller alkane, becoming 0.4 in P450PMO. In P450PMO, catalytic efficiency is highest on propane and decreases along the alkane series, driven by decreasing kcat.

[5] = Reactions on alkanes, total turnovers (Table 18): nonane; details: nonane (9 C atoms)
Experimental: as §1, §2, §3

[6] = TTN normalized to the highest value of the variant's series
[7] = total turnovers, standardized reaction conditions

B1: P450PMO: P450 BM-3 variant, SEQ ID NO:125; 7-7 plus G443A and D698G; propane monooxygenase (protein)
chain: TIKEMPQPKTFGELKNLPLLNTDKPVQALMKIADELGEIFKFEAPGCVTRYISSQRLIKEACDESRFDKNLSQELKFFRDFGGDGLFTSWTHEINWKKAHNILLPSFSQQAMKGYHAMMVDIAVQLVQKWERLNADEHIEVSEDMTRLTLDTIGLCGFNYRFNSFYRDQPHPFIISMVRALDEVMNKPQRANPDDPAYDENKRQCQEDIKVMNDLVDKIIADRKARGEQSDDLLTQMLNGKDPETGEPLDDGNISYQIITFLIAGHETTSGLLSFALYFLVKNPHVLQKVVEEAARVLVDPVPSYKQVKQLKYVGMVLNEALRLWPTFPAFSLYAKEDTVLGGEYPLEKGDEVMVLIPQLHRDKTVWGDDVEEFRPERFENPSAIPQHAFKPFGNGQRACIGQQFALHEATLVLGMMLKHFDFEDHTNYELDIKETLTLKPEAFVVKAKSKKIPLGGIPSPSTGQSAKKVRKKAENAHNTPLLVLYGSNMGTAEGTARDLADIAMSKGFAPQVATLDSHAGNLPREGAVLIVTASYNGHPPDNAKQFVDWLDQASADEVKGVRYSVFGCGDKNWATTYQKVPAFIDETLAAKGAENIADRGEADASDDFEGTYEEWREHMWSDVAAYFNLDIENSEDNKSTLSLQFVDSAADMPLAKMHGAFSTNVVASKELQQPGSARSTRHLEIELPKEASYQEGGHLGVIPRNYEGTVNRVTARFGLDASQQIRLEAEEEKLAHLPLAKTVSVEELLQYVELQDPVTRTQLRAMAAKTVCPPHKVELEALLEKQAYKEQVLAKRLTMLELLEKYPACEMKFSEFIALLPSIRPRYYSISSSPRVDEKQASITVSVVSGEAWSGYGEYKGIASNYLAELQEGDTITCFISTPQSEFTLPKDPETPLIMVGPGTGVAPFRGFVQARKQLKEQGQSLGEAHLYFGCRSPHEDYLYQEELENAQSEGIITLHTAFSRMPNQPKTYVQHVMEQDGKKLIELLDQGAHFYICGDGSQMAPAVEATLMKSYADVHQVSEADARLWLQQLEEKGRYAKDVWAG
modifications: Mutant P450PMO protein sequence
notes: 7-7 plus G443A and D698G; propane monooxygenase
% rel. act. [1, 6]: 5.3%
TTN [1, 7]: 1080 ± 30
% rel. act. [2, 6]: 4.9%
TTN [2, 7]: 1000 ± 110
increase of total turnovers on propane ([3]; compared to 139-3): 100 fold
% rel. act. ([3]; propane (3 C atoms), TTN normalized to the highest value of the variant's series): 100.0%
TTN ([3]; propane (3 C atoms), total turnovers, standardized reaction conditions): 20500 ± 1900
turnovers on propane (TTN) ([3]; propane-saturated buffer, cofactor regeneration system): more than 20,000
Km [4]: 185 ± 40 µM
kcat [4]: 0.217 ± 0.067 s⁻¹
% rel. act. [5, 6]: 11.7%
TTN [5, 7]: 2390 ± 30
